In PMC6109231:

Biological target: heat shock protein 60 (HSP60) (human (endogenous in HEK293T)), P10809
Test: negative-stain EM, single-particle analysis; SEC fraction 4 (1.5 to 2 MDa) of HEK293T lysate, Superdex 200 in PBS pH 7.2 at 4°C; 2% uranyl acetate; raw micrographs, reference-free 2D class averages, 3D classification (RELION) and ab initio reconstruction (cryoSPARC); proteins identified by mass spectrometry of the fraction
Conditions: remark: other sources report otherwise

stoichiometry N: 7
B1: heat shock protein 60 (HSP60), P10809 27-573 (natural protein)
chain: AKDVKFGADARALMLQGVDLLADAVAVTMGPKGRTVIIEQSWGSPKVTKDGVTVAKSIDLKDKYKNIGAKLVQDVANNTNEEAGDGTTTATVLARSIAKEGFEKISKGANPVEIRRGVMLAVDAVIAELKKQSKPVTTPEEIAQVATISANGDKEIGNIISDAMKKVGRKGVITVKDGKTLNDELEIIEGMKFDRGYISPYFINTSKGQKCEFQDAYVLLSEKKISSIQSIVPALEIANAHRKPLVIIAEDVDGEALSTLVLNRLKVGLQVVAVKAPGFGDNRKNQLKDMAIATGGAVFGEEGLTLNLEDVQPHDLGKVGEVIVTKDDAMLLKGKGDKAQIEKRIQEIIEQLDVTTSEYEKEKLNERLAKLSDGVAVLKVGGTSDVEVNEKKDRVTDALNATRAAVEEGIVLGGGCALLRCIPALDSLTPANEDQKIGIEIIKRTLKIPAMTIAKNAGVEGSLIVEKIMQSSSEVGYDAMAGDFVNMVEKGIIDPTKVVRTALLDAAGVASLLTTAEVVVTEIPKEEKDPGMGAMGGMGGGMGGGMF
